Data: PMC5342195, “Structure-based mutational analysis of ICAT residues mediating negative regulation of β-catenin co-transcriptional activity” (PLoS ONE, 2017)

T1: ICAT D66G + F71A + E75V (GAV), Flag-tagged (human, UniProt Q9NSA3 1-81, D66G | F71A | E75V)
T1 construct: ICAT, human cDNA of 243 bp in pFLAG-CMV2, triple mutant of the C-terminal domain; also called ICAT-GAV; source: Mel501 cells, transiently transfected, in total cell lysate
T1 sequence (looked up): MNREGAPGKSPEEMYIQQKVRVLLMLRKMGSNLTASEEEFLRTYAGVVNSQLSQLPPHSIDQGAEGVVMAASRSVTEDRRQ


Tests used:
[1] = biological target: T2, WT ICAT-GST recombinant protein (human, UniProt Q9NSA3 1-81); assay: pull-down; WT ICAT-GST on glutathione-Sepharose 4B beads incubated 3 h at 4°C with total cell lysate in RIPA (500 μg of total proteins) of Lu1205 cells transfected with HA-tagged β-catenin-NLS WT or mutants; washed five times; anti-HA blot; densitometry with ImageJ; conditions: one partner purified
T2 construct: ICAT, WT human cDNA cloned in the bacterial expression vector pGEX-4T3; also called recombinant WT ICAT-GST protein

[2] = biological target: T3, ICAT D66G + F71A (GA), Flag-tagged (human, UniProt Q9NSA3 1-81, D66G | F71A); assay: co-IP; total cell lysates of Mel501 cells transfected with ICAT-Flag WT or mutants, anti-Flag monoclonal antibody 2 h at 4°C, Protein G agarose, washed with RIPA; blot for endogenous β-catenin; densitometry with ImageJ, control fixed to 1.0; conditions: partners not purified
T3 construct: ICAT, human cDNA of 243 bp in pFLAG-CMV2, double mutant of the C-terminal domain; also called ICAT-GA; source: Mel501 cells, transiently transfected, in total cell lysate

[3] = biological target: T4, ICAT F71A + E75V (AV), Flag-tagged (human, UniProt Q9NSA3 1-81, F71A | E75V); assay: as above; conditions: partners not purified
T4 construct: ICAT, human cDNA of 243 bp in pFLAG-CMV2, double mutant of the C-terminal domain; also called ICAT-AV; source: Mel501 cells, transiently transfected, in total cell lysate

[4] = biological target: T1, ICAT D66G + F71A + E75V (GAV), …; assay: as above; conditions: partners not purified

Binder	fold of pulled-down protein against full-length WT β-catenin [1] [fold]	reduction of co-precipitated β-catenin against ICAT WT [2] [%]	reduction of co-precipitated β-catenin against ICAT WT [3] [%]	reduction of co-precipitated β-catenin against ICAT WT [4] [%]
HA-tagged β-catenin-NLS Δ665 (D665X) (domain or fragment, UniProt P35222 1-664, looked up, β-catenin of the HA-tagged CMV::β-catenin-NLS expression vector, truncated by a premature stop codon at residue 665 (D665X); lacks helix C (residues 667-683) and the C-terminal domain; If the NLS stood at the C-terminus of the parent construct, the stop codon would remove it; also called β-catenin Δ665; source: Lu1205 cells, transfected, in total cell lysate) MATQADLMELDMAMEPDRKAAVSHWQQQSYLDSGIHSGATTTAPSLSGKGNPEEEDVDTSQVLYEWEQGFSQSFTQEQVADIDGQYAMTRAQRVRAAMFPETLDEGMQIPSTQFDAAHPTNVQRLAEPSQMLKHAVVNLINYQDDAELATRAIPELTKLLNDEDQVVVNKAAVMVHQLSKKEASRHAIMRSPQMVSAIVRTMQNTNDVETARCTAGTLHNLSHHREGLLAIFKSGGIPALVKMLGSPVDSVLFYAITTLHNLLLHQEGAKMAVRLAGGLQKMVALLNKTNVKFLAITTDCLQILAYGNQESKLIILASGGPQALVNIMRTYTYEKLLWTTSRVLKVLSVCSSNKPAIVEAGGMQALGLHLTDPSQRLVQNCLWTLRNLSDAATKQEGMEGLLGTLVQLLGSDDINVVTCAAGILSNLTCNNYKNKMMVCQVGGIEALVRTVLRAGDREDITEPAICALRHLTSRHQEAEMAQNAVRLHYGLPVVVKLLHPPSHWPLIKATVGLIRNLALCPANHAPLREQGAIPRLVQLLVRAHQDTQRRTSMGGTQQQFVEGVRMEEIVEGCTGALHILARDVHNRIVIRGLNTIPLFVQLLYSPIENIQRVAAGVLCELAQDKEAAEAIEAEGATAPLTELLHSRNEGVATYAAAVLFRMSE	1.5	–	–	–
endogenous β-catenin of Mel501 cells (natural protein, human (endogenous in Mel501), UniProt P35222 1-781, looked up, β-catenin, endogenous in the human melanoma cell line Mel501; also called CTNNB1; source: endogenous, Mel501 total cell lysate) MATQADLMELDMAMEPDRKAAVSHWQQQSYLDSGIHSGATTTAPSLSGKGNPEEEDVDTSQVLYEWEQGFSQSFTQEQVADIDGQYAMTRAQRVRAAMFPETLDEGMQIPSTQFDAAHPTNVQRLAEPSQMLKHAVVNLINYQDDAELATRAIPELTKLLNDEDQVVVNKAAVMVHQLSKKEASRHAIMRSPQMVSAIVRTMQNTNDVETARCTAGTLHNLSHHREGLLAIFKSGGIPALVKMLGSPVDSVLFYAITTLHNLLLHQEGAKMAVRLAGGLQKMVALLNKTNVKFLAITTDCLQILAYGNQESKLIILASGGPQALVNIMRTYTYEKLLWTTSRVLKVLSVCSSNKPAIVEAGGMQALGLHLTDPSQRLVQNCLWTLRNLSDAATKQEGMEGLLGTLVQLLGSDDINVVTCAAGILSNLTCNNYKNKMMVCQVGGIEALVRTVLRAGDREDITEPAICALRHLTSRHQEAEMAQNAVRLHYGLPVVVKLLHPPSHWPLIKATVGLIRNLALCPANHAPLREQGAIPRLVQLLVRAHQDTQRRTSMGGTQQQFVEGVRMEEIVEGCTGALHILARDVHNRIVIRGLNTIPLFVQLLYSPIENIQRVAAGVLCELAQDKEAAEAIEAEGATAPLTELLHSRNEGVATYAAAVLFRMSEDKPQDYKKRLSVELTSSLFRTEPMAWNETADLGLDIGAQGEPLGYRQDDPSYRSFHSGGYGQDALGMDPMMEHEMGGHHPGADYPVDGLPDLGHAQDLMDGLPPGDSNQLAWFDTDL	–	> 70	> 70	> 70
